Among the data in patent US12723100 (CSPC MEGALITH BIOPHARMACEUTICAL, dated 2026) are EC50 values, retold here.

The target in experiment [1] is T1, mouse Nectin-4 (mouse, UniProt Q8R007 31-508).
T1 construct: Transiently expressed on 293T cells; also called murine Nectin-4
T1 sequence: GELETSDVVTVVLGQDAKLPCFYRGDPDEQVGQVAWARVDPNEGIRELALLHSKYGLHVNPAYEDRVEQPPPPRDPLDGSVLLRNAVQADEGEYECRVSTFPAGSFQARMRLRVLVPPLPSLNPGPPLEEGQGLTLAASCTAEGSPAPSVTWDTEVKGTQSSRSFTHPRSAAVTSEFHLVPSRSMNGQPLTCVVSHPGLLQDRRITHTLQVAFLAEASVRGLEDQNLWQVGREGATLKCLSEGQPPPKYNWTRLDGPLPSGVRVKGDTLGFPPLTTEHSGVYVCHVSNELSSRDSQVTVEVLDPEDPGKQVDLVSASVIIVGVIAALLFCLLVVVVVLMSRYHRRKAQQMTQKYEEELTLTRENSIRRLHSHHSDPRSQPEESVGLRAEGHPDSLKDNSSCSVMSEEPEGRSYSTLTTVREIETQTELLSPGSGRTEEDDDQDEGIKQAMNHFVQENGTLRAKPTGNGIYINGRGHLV
Put plainly: flow cytometry, transfected 293T cells; + EC50 between 25 nM and 133 nM. The procedure:
(§1) CDNAs encoding Nectin-4 protein from cynomolgus monkey (SEQ ID NO: 62), rat (SEQ ID NO: 63), or mouse (SEQ ID NO: 64) were separately cloned into a pcDNA3.1-based mammalian expression plasmid. The respective plasmids were transfected to human 293T cells in a similar way described in Example 6. The binding EC50 of disclosed human Nectin-4 antibodies to species-specific Nectin-4 transiently expressed on 293T cell surface was measured by flow cytometry.

Experiment [2] addresses T2, rat Nectin-4 (rat, UniProt Q8R007 31-508 (mouse entry)).
T2 construct: Transiently expressed on 293T cells
T2 chain: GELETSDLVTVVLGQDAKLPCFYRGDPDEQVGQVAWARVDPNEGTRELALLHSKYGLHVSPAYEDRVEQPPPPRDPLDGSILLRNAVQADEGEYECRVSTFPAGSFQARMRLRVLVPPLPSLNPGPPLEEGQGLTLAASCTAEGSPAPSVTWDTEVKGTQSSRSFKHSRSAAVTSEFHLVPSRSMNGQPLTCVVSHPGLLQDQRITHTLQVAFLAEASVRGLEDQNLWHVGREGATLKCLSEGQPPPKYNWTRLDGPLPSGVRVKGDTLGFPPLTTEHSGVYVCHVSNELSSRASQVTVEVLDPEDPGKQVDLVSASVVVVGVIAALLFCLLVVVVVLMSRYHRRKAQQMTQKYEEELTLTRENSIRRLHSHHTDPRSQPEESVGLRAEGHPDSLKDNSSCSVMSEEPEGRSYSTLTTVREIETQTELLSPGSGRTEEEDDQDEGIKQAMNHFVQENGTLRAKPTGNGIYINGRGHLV
Put plainly: flow cytometry, transfected 293T cells; +++ EC50 less than 5 nM. As for the experimental part:
as §1

Experiment [3] deals with T2, rat Nectin-4. Put plainly: flow cytometry, transfected 293T cells; + EC50 between 25 nM and 133 nM. The procedure: as §1
For experiment [4], the target named is T3, full-length human Nectin-4 on cells (human, UniProt Q96NY8 32-510).
T3 construct: the cell is named under assay; also called CHO-Nectin-4 cells; Nectin-4-CHO
T3 sequence: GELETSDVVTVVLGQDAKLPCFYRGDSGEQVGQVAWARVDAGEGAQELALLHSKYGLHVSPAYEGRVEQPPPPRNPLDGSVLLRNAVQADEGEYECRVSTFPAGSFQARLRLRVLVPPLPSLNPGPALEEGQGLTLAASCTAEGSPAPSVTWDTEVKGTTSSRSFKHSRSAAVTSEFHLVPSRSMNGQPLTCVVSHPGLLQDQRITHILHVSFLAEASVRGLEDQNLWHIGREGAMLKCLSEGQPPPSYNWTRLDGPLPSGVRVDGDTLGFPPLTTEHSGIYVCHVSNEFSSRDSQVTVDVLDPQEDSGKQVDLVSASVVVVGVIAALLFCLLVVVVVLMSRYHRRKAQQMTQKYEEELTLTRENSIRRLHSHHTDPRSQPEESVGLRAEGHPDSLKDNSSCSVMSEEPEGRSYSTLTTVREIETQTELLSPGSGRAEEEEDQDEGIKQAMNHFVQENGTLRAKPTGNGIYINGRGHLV
The experiment is described as follows: flow cytometry competition on CHO-Nectin-4 cells; competitor biotinylated human Nectin-1-His; Nectin-1 as competitor. The procedure:
The ability of disclosed Nectin4-specific antibodies to block Nectin-1 binding to Nectin-4 expressing cells (CHO cells transfected with human Nectin-4) was determined by FACS. Briefly, CHO-Nectin-4 cells were incubated with dilutions of the disclosed Nectin-4 purified recombinant antibodies. Then, biotinylated human Nectin-1 with His tag (ACROBiosystems, catalog number: PV1-H5223, lot: 733-38GS1-47, 0.75 ug/ml) was added to the plate. After 30-minute incubation, cells were washed, followed by adding Streptavidin Alexa 647 (1:1000) to the samples. After a 30 minute incubation, the samples were analyzed on a flow cytometry instrument (Intellicyte, IQue plus, Sartorius) for Nectin-1 blocking activity. The positive control antibody used in this blocking assay is a reference antibody (known to be a recombinant Nectin-4 specific antibody, made by Novarock Biotherapeutics, lot: 03042020KD).

Experiment [5] deals with T3, full-length human Nectin-4 on cells. Put plainly: flow cytometry competition on CHO-Nectin-4 cells; competitor biotinylated human TIGIT; TIGIT as competitor. As for the experimental part:
The ability of disclosed Nectin4-specific antibodies to block TIGIT binding to CHO-Nectin-4 cells was assessed by FACS. Briefly, CHO-Nectin-4 cells were incubated with dilutions of the disclosed purified recombinant antibodies. Then, biotinylated human TIGIT protein (SinoBiologic, catalog: 10917-H08H-B, lot: LC13AP0902) was added to the plate. After 30-minute incubation, cells were washed, followed by adding Streptavidin Alexa 647 (1:1000) to the samples. After a 30 minute incubation, the samples were analyzed on a flow cytometry instrument (Intellicyte, IQue plus, Sartorius) for TIGIT blocking activity. The positive control antibody used in this blocking assay is PC2, a Nectin-4 antibody with known blocking activity.

Experiment [6] addresses T2, rat Nectin-4. The experiment is described as follows: flow cytometry, transfected 293T cells; ++ EC50 between 5 nM and 25 nM. As for the experimental part:
as §1

B1: N4_mAb 5 (antibody, human IgG1, V domains shown)
VH: EVQLQQSGPDLVKPGASVKISCKASGYSFTGHYMHWVKQSHGKSLEWIGRVNPNNGGSSYNQKFKDKAILTVDKSSTTAYMELRSLTSEDSAVYYCARDPLGGSYGFAYWGQGTLVTVSA
VL: DIVLTQSPASLAVSLGQRATISCRASQSVTTSSYSYMHWYQQKPGQPPKLLIKYASNLESGVPARFSGSGSGTDFTLNIHPVEEEDTATYYCQHSWEIPYTFGGGTKLEMK
notes: Tested as chimera (human IgG1/kappa constants); not shown: human IgG1 constant region (Uniprot P01857); human Kappa light chain constant region (UniProt P01834)
Take B1: the EC50 is 25 to 133 nM in experiment [1] and under 5 nM in experiment [2].

B2: N4_mAb 6 (antibody, human IgG1, V domains shown)
VH: QVQLQQSGPELVKPGASVRISCKASGYTFTTYYIHWVKQRPGQGLEWIGWIYPGNVNTKYTENFKDKATLTADKSSSTAYMQLSSLTSEDSAVYFCARGLYYFDFWGQGTTLTVSS
VL: SIVMTQTPKFLLVSAGDRVTITCKASQSVNNDVAWYQQKPGQSPKLLIYYASNRDTGVPDRFTGSGFGTDFTFTISSVQAEDLAVYFCQQDYSSPYTFGGGTKLEIK
notes: Tested as chimera (murine variable regions, human IgG1/kappa constants); not shown: human IgG1 constant region (Uniprot P01857); human Kappa light chain constant region (UniProt P01834)
Regarding B2, the EC50 in experiment [2] was under 5 nM.

B3: N4_mAb 8 (antibody, human IgG1, V domains shown)
VH: QVQLQQSGPVLVKPGASVRISCKASGYTFTSYYIHWVKQRPGQGLEWIGWIYPGNVNTKYNENFRDKATLTADKSSSTSYMQLSSLTSEDSAVYFCARGIYYFDYWGQGTTLTVSS
VL: IIVMTQTPKFLLVSAGDRVTITCKASQSVNNDVAWYQEKPGQSPKLLIYYASNRDTGVPDRFTGSGYGTDFTFTISTVQAEDLAVYFCHQDYSSPFTFGSGTKLEIK
notes: as for B2
B3: the EC50 in experiment [2] was under 5 nM.

B4: N4_mAb 7 (antibody, human IgG1, V domains shown)
VH: QVQLQQSGPELVKPGASVKMSCKASGYTFTTYYIHWVKQRPGQGLEWIGWIYPGNAGIKSNEKFKGKTTLTADKSSSTAYMLLSSLTSEDSAIYFCARGVYFFDYWGQGTTLTVSS
VL: SIVMTQTPKFLLVSAGDRVTITCKASQSVNNDVSWFQQKPGQSPKLLIYYASNRYTGVPDRFSGSGYGTDFTFTITTVQAEDLAVYFCQQDYSSPYTFGGGTKLEIK
notes: as for B2
On to B4, for which, in experiment [2], the EC50 was under 5 nM.

B5: N4_mAb 4 (antibody, human IgG1, V domains shown)
VH: DVQLQESGPDLVKPSQSLSLTCTVTGYSITSAYNWHWIRQFPGNKLEWMGYIHYSGRTNYNPSLKSRISITRDTSKNQFFLQLNSLTTEDTATYYCARWITTATGWYLDVWGAGTTVTVSS
VL: not shown
notes: as for B1
Consider B5, for which the EC50 is 25 to 133 nM in experiment [3], over 130 nM in experiment [4] and over 130 nM in experiment [5].

B6: N4_mAb 2 (antibody, human IgG1, V domains shown)
VH: QVQLKQSGPNLVQPSQSLSITCTVSGFSLTTYGAHWVRQSPGKGLEWLGVIWRGGSTDYNAAFMSRLSITKDNSKSQVFFKMNSLQADDTAIYYCAKIGYDGYAMDNWGQGTSVTVSS
VL: DFQVTQSPASLSASVGETVTITCRTSENIHNYLAWYQQKQGKSPQLLVYNAKTLADGVPSRFSGSGSGTQYSLKINSLQPEDFGTYYCQHFWSSPWTFGGGTKLEIK
notes: as for B1
In the case of B6, the EC50 in experiment [6] was 5 to 25 nM.

B7: N4_mAb 3 (antibody, human IgG1, V domains shown)
VH: EVQLQQSGAELVKPGASVKLSCTVSGFNIKDTYMHWVKQRPEQGLEWIGRIDPANGNTKYDPKFQGKATIIADKASNTAYLQLSSLTSEDAAVYYCAHYYGSSYFAMDCWGQGTSVTVSS
VL: DIVMTQSHKFMSTSVGDRVSITCKASQDVSTAVAWYQQKPGQSPKLLIYWASTRHTGVPDRFTGSGSGTDYTLTISSVQTEDLALYYCQQHYSTPLTFGAGTKLELK
notes: as for B1
As for B7, in experiment [3], the EC50 was in the range of 25 to 133 nM.
